The results in this text go back to PMC6879491 (Nature Communications, 2019).

Holding throughout (assay): cell-bound Gaussia luciferase activity (equilibrium binding on intact cells); Jurkat (CD3, CD45) or U266 (HLA-A2) cells, 1 h at 37 °C with increasing concentrations of GpL fusion proteins, washed five times with ice-cold PBS; specific binding = total minus non-specific
What all share (conditions): partners not purified

The target of assay [1] is T1, CD45 on cells (Homo sapiens (Jurkat, THP-1), UniProt P08575).
T1 construct: CD45 on the surface of human cell lines; also called pan-hematopoietic lineage marker CD45; source: on THP-1 cells (functional assays)
T1 sequence (P08575 26-1306): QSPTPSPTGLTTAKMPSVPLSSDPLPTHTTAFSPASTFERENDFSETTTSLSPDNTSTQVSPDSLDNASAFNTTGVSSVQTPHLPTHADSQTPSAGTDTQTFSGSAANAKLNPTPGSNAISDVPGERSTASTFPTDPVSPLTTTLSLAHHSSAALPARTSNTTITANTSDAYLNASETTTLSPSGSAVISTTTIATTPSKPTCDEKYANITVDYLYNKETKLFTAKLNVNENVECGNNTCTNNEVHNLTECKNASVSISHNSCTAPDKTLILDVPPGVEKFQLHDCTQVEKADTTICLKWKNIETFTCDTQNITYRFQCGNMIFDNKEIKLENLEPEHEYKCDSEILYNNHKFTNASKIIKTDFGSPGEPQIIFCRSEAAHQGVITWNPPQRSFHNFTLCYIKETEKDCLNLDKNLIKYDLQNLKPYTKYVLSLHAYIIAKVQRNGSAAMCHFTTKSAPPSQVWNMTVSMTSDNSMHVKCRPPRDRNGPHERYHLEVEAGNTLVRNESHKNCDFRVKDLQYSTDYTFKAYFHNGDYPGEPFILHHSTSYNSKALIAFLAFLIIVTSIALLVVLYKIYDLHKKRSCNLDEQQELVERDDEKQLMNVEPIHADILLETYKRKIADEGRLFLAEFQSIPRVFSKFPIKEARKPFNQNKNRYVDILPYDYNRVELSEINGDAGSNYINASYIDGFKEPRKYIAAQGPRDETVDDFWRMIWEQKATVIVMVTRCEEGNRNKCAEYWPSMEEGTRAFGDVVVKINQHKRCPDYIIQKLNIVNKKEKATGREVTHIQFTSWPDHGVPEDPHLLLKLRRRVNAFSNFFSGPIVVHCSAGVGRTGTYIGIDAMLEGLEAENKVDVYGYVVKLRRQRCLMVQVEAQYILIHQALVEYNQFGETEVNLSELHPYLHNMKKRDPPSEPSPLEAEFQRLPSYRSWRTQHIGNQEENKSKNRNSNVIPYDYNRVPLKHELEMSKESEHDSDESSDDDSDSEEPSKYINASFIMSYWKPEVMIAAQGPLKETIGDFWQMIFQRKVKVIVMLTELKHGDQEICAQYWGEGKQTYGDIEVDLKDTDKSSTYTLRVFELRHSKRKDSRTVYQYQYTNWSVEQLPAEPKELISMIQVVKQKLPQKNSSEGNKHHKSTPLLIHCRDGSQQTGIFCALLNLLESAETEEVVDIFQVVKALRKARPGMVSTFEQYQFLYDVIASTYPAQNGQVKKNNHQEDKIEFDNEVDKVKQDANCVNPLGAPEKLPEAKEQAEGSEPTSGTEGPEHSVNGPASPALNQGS

For assay [2], the target named is T2, CD3 on Jurkat cells (Homo sapiens (Jurkat, donor T cells), UniProt P07766).
T2 construct: CD3ε, the chain addressed by the diL2K scFv, on the surface of CD3-positive cells; On cells CD3ε stands within the TCR-CD3 complex; also called CD3ε; CD3 antigen; source: on donor T cells (functional assays)

Assay [3] addresses T3, HLA-A2 on cells (Homo sapiens, HLA-A*02:01 (allele …, strain)).
T3 construct: HLA-A2 on the surface of HLA-A2-positive human cell lines; source: on THP-1 cells (functional assays)

B1: scFvαCD45-GpL (scFv, V domains shown)
VH: QVQLVESGGGLVQPGGSLKLSCAASGFDFSRYWMSWVRQAPGKGLEWIGEINPTSSTINFTPSLKDKVFISRDNAKNTLYLQMSKVRSEDTALYYCARGNYYRYGDAMDYWGQGTSVTVSG
VL: DIVLTQSPASLAVSLGQRATISCRASKSVSTSGYSYLHWYQQKPGQPPKLLIYLASNLESGVPARFSGSGSGTDFTLNIHPVEEEDAATYYCQHSRELPFTFGSGTKLEIK
notes: as the scFv of m2 (GenBank MN432904); Expression plasmid pCR3; also called scFvCD45-GpL; anti-CD45 scFv fused to Gaussia princeps luciferase; source: Hek293, electroporated, secreted, in supernatant
In assay [1], B1 gave a Kd of 11.8 nM.

B2: scFvαCD3-GpL (scFv, V domains shown)
VH: DVQLVQSGAEVKKPGASVKVSCKASGYTFTRYTMHWVRQAPGQGLEWIGYINPSRGYTNYADSVKGRFTITTDKSTSTAYMELSSLRSEDTATYYCARYYDDHYCLDYWGQGTTVTVSS
VL: DIVLTQSPATLSLSPGERATLSCRASQSVSYMNWYQQKPGKAPKRWIYDTSKVASGVPARFSGSGSGTDYSLTINSLEAEDAATYYCQQWSSNPLTFGGGTKVEIK
notes: scFv of the anti-CD3ε antibody diL2K (de-immunized version of mouse monoclonal L2K); as the anti-CD3 scFv of m3 (GenBank MN432903); Expression plasmid pCR3; also called scFvCD3-GpL; anti-CD3 scFv fused to Gaussia princeps luciferase; source: Hek293, electroporated, secreted, in supernatant
Regarding B2, the Kd in assay [2] is 11.1 nM. This counts as double-digit nanomolar.

B3: scFvαHLA-A2-GpL (scFv, V domains shown)
VH: QVQLVQSGGGVVQPGGSLRVSCAASGVTLSDYGMHWVRQAPGKGLEWMAFIRNDGSDKYYADSVKGRFTISRDNSKKTVSLQMSSLRAEDTAVYYCAKNGESGPLDYWYFDLWGRGTLVTVSS
VL: DVVMTQSPSSLSASVGDRVTITCQASQDISNYLNWYQQKPGKAPKLLIYDASNLETGVPSRFSGSGSGTDFTFTISSLQPEDFATYYCQQYSSFPLTFGGGTKVDIK
notes: scFv of the human anti-HLA-A2/A28 antibody clone 3PF12 (VH GenBank AF163307, VL GenBank AF163308); as the scFv of m1 (GenBank MN432902); Expression plasmid pCR3; also called scFvHLA-A2-GpL; anti-HLA-A2 scFv fused to Gaussia princeps luciferase; source: Hek293, electroporated, secreted, in supernatant
B3 gave a Kd in assay [3] of 0.9 nM.

In general, Kd refers to the equilibrium constant for the complex coming apart. A higher Kd goes with weaker binding.
